The subject of the data set is Escherichia coli TOP10. Nature of the data set: shrunken log2 fold change of peptide-encoding DNA abundance (4.5 h post-induction vs induction); higher = less antimicrobial activity (less host growth inhibition). To be noted: time post-induction: 4.5 h; library: site-saturation at positions 5, 18, 19, 20.
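Also: peptides expressed intracellularly from a pBAD plasmid library in pooled LB shake-flask culture, induced with 0.3% L-arabinose, DNA abundance read by NGS, three biological replicates, DESeq2 with apeglm shrinkage.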

For RRIRHRPPRLPRPRPRPAQSPRP, the “shrunken log2 fold change” value is -0.0382.
Regarding RRIRARPPRLPRPRPRPGYRPRP, the “shrunken log2 fold change” value was -0.107.
As to RRIRNRPPRLPRPRPRPLNYPRP, the “shrunken log2 fold change” value was -0.29.
RRIRERPPRLPRPRPRPHLHPRP: the “shrunken log2 fold change” value is -0.485.
Regarding RRIRNRPPRLPRPRPRPMYNPRP, the “shrunken log2 fold change” value is -0.693.
In the case of RRIRYRPPRLPRPRPRPRNKPRP, the “shrunken log2 fold change” value was -0.661.
RRIRPRPPRLPRPRPRPCRMPRP: the “shrunken log2 fold change” value was -0.0012.
As to RRIRIRPPRLPRPRPRPAMWPRP, the “shrunken log2 fold change” value was found to be 0.13.
Turning to RRIRARPPRLPRPRPRPDPLPRP, the “shrunken log2 fold change” value is 0.867.
In the case of RRIRMRPPRLPRPRPRPNHNPRP, the “shrunken log2 fold change” value was -0.687.
For the sequence RRIRIRPPRLPRPRPRPQQMPRP, the “shrunken log2 fold change” value is -0.0189.
Under RRIRVRPPRLPRPRPRPLSKPRP stands -0.303; under RRIRNRPPRLPRPRPRPMDKPRP, 0.00658.
Under RRIRKRPPRLPRPRPRPLLYPRP stands 0.0166.
For RRIRERPPRLPRPRPRPRNEPRP the value was -0.473.
Turning to RRIRSRPPRLPRPRPRPGKYPRP, the “shrunken log2 fold change” value was -0.759.
As for RRIRNRPPRLPRPRPRPGVAPRP, the “shrunken log2 fold change” value was determined as 0.135.
With RRIRFRPPRLPRPRPRPFGFPRP, the “shrunken log2 fold change” value was -0.436.
Turning to RRIRPRPPRLPRPRPRPEDWPRP, the “shrunken log2 fold change” value came to 0.391.
For RRIRKRPPRLPRPRPRPEQQPRP the value was 1.43; for RRIRSRPPRLPRPRPRPMIPPRP, -0.109; for RRIRPRPPRLPRPRPRPGHQPRP, 0.153.
Under RRIRDRPPRLPRPRPRPMCQPRP stands 0.0359; under RRIRQRPPRLPRPRPRPRVKPRP, 0.103; under RRIRTRPPRLPRPRPRPEYKPRP, 0.134.
Under RRIRCRPPRLPRPRPRPCELPRP stands -0.146; under RRIRPRPPRLPRPRPRPENNPRP, -0.119; under RRIRVRPPRLPRPRPRPWWPPRP, 0.162.
On to RRIRKRPPRLPRPRPRPGFVPRP, for which the “shrunken log2 fold change” value worked out at 0.259.
For RRIRDRPPRLPRPRPRPLQFPRP the value was 0.0246; for RRIRDRPPRLPRPRPRPLCSPRP, 0.513; for RRIRGRPPRLPRPRPRPPSCPRP, 0.654.
Under RRIRNRPPRLPRPRPRPNMVPRP stands -0.385; under RRIRWRPPRLPRPRPRPGNHPRP, -0.163.
For RRIRKRPPRLPRPRPRPLHAPRP the value was 0.449; for RRIRFRPPRLPRPRPRPHHPPRP, -0.374.
For RRIRVRPPRLPRPRPRPPMDPRP, the “shrunken log2 fold change” value is -0.291.
For RRIRRRPPRLPRPRPRPKHPPRP the value was 0.294.
Under RRIRQRPPRLPRPRPRPEMMPRP stands 0.151; under RRIRFRPPRLPRPRPRPRMFPRP, 0.169; under RRIRERPPRLPRPRPRPCIDPRP, -0.00146.
Under RRIRMRPPRLPRPRPRPFTCPRP stands -0.173; under RRIRQRPPRLPRPRPRPACMPRP, -0.294; under RRIRLRPPRLPRPRPRPWIAPRP, 0.0439.
Consider RRIRSRPPRLPRPRPRPHWAPRP, for which the “shrunken log2 fold change” value was -0.0673.
Under RRIRVRPPRLPRPRPRPEYPPRP stands -0.322.
For RRIRLRPPRLPRPRPRPMFIPRP the value was -0.734; for RRIRDRPPRLPRPRPRPEARPRP, 1.96.
For RRIRGRPPRLPRPRPRPDNYPRP, the “shrunken log2 fold change” value was determined as 0.0266.
For RRIRRRPPRLPRPRPRPITFPRP the value was 0.058.

The values are drawn from the supplement of paper PMC9112550, “Optimization of the antimicrobial peptide Bac7 by deep mutational scanning” (BMC Biology, 2022).
